Experimental data published in the supplement of paper PMC11316812.
± gives the standard deviation of the averaged measurements.

Columns and labels:
MCF7 = assay: percentage of EdU-negative (G0-arrested) nuclei per well, 72 h; higher = more G0 arrest; conditions: reference: sequence is the full UniProt precursor, the tested protein was the secreted form or ectodomain
hTERT-HMEC = assay: as above; conditions: reference: sequence is the full UniProt precursor, the tested protein was the secreted form or ectodomain
[1] = protein concentration 0.03125 µM
[2] = protein concentration 0.3125 µM
[3] = protein concentration 0.01425 µM
[4] = protein concentration 0.1425 µM
[5] = protein concentration 0.0126825 µM
[6] = protein concentration 0.126825 µM
[7] = protein concentration 0.0225 µM
[8] = protein concentration 0.020715 µM
[9] = protein concentration 0.20715 µM
[10] = protein concentration 0.0055 µM
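Also: secreted proteins added to cultured cells, EdU pulse at the end, nuclei found by Hoechst imaging, EdU status from nuclear versus surrounding ring intensity ratio, PBS as neutral control.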

Sequence: MSRLPVLLLLQLLVRPGLQAPMTQTTPLKTSWVNCSNMIDEIITHLKQPPLPLLDFNNLNGEDQDILMENNLRRPNLEAFNRAVKSLQNASAIESILKNLLPCLPLATAAPTRHPIHIKDGDWNEFRRKLTFYLKTLENAQAQQTTLSLAIF
- percentage of EdU-negative (MCF7; [1]): 27.8 ± 0.94%
- percentage of EdU-negative (MCF7; [2]): 23.6 ± 1.8%
- percentage of EdU-negative (hTERT-HMEC; [1]): 5.21 ± 0.57%
- percentage of EdU-negative (hTERT-HMEC; [2]): 4.85 ± 0.58%

Sequence: MKITSTSCICPVLVCLCFVQRCYGTAHHSSIKVMRNQTKHIEGETEVHHRPKRGWVWNQFFVLEEHMGPDPQYVGKLHSNSDKGDGSVKYILTGEGAGTIFIIDDTTGDIHSTKSLDREQKTHYVLHAQAIDRRTNKPLEPESEFIIKVQDINDNAPKFTDGPYIVTVPEMSDMGTSVLQVTATDADDPTYGNSARVVYSILQGQPYFSVDPKTGVIRTALHNMDREAREHYSVVIQAKDMAGQVGGLSGSTTVNITLTDVNDNPPRFPQKHYQLYVPESAQVGSAVGKIKANDADTGSNADMTYSIINGDGMGIFSISTDKETREGILSLKKPLNYEKKKSYTLNIEGANTHLDFRFSHLGPFKDATMLKIIVGDVDEPPLFSMPSYLMEVYENAKIGTVVGTVLAQDPDSTNSLVRYFINYNVEDDRFFNIDANTGTIRTTKVLDREETPWYNITVTASEIDNPDLLSHVTVGIRVLDVNDNPPELAREYDIIVCENSKPGQVIHTISATDKDDFANGPRFNFFLDERLPVNPNFTLKDNEDNTASILTRRRRFSRTVQDVYYLPIMISDGGIPSLSSSSTLTIRVCACERDGRVRTCHAEAFLSSAGLSTGALIAILLCVLILLAIVVLFITLRRSKKEPLIISEEDVRENVVTYDDEGGGEEDTEAFDITALRNPSAAEELKYRRDIRPEVKLTPRHQTSSTLESIDVQEFIKQRLAEADLDPSVPPYDSLQTYAYEGQRSEAGSISSLDSATTQSDQDYHYLGDWGPEFKKLAELYGEIESERTT
- percentage of EdU-negative (MCF7; [3]): 26 ± 2.9%
- percentage of EdU-negative (MCF7; [4]): 37 ± 4.3%
- percentage of EdU-negative (hTERT-HMEC; [3]): 5.06 ± 0.45%
- percentage of EdU-negative (hTERT-HMEC; [4]): 7.93 ± 0.73%

Sequence: MQVSKRMLAGGVRSMPSPLLACWQPILLLVLGSVLSGSATGCPPRCECSAQDRAVLCHRKRFVAVPEGIPTETRLLDLGKNRIKTLNQDEFASFPHLEELELNENIVSAVEPGAFNNLFNLRTLGLRSNRLKLIPLGVFTGLSNLTKLDISENKIVILLDYMFQDLYNLKSLEVGDNDLVYISHRAFSGLNSLEQLTLEKCNLTSIPTEALSHLHGLIVLRLRHLNINAIRDYSFKRLYRLKVLEISHWPYLDTMTPNCLYGLNLTSLSITHCNLTAVPYLAVRHLVYLRFLNLSYNPISTIEGSMLHELLRLQEIQLVGGQLAVVEPYAFRGLNYLRVLNVSGNQLTTLEESVFHSVGNLETLILDSNPLACDCRLLWVFRRRWRLNFNRQQPTCATPEFVQGKEFKDFPDVLLPNYFTCRRARIRDRKAQQVFVDEGHTVQFVCRADGDPPPAILWLSPRKHLVSAKSNGRLTVFPDGTLEVRYAQVQDNGTYLCIAANAGGNDSMPAHLHVRSYSPDWPHQPNKTFAFISNQPGEGEANSTRATVPFPFDIKTLIIATTMGFISFLGVVLFCLVLLFLWSRGKGNTKHNIEIEYVPRKSDAGISSADAPRKFNMKMI [Q96FE5]
- percentage of EdU-negative (MCF7; [5]): 23.8 ± 3%
- percentage of EdU-negative (MCF7; [6]): 28.9 ± 0.74%
- percentage of EdU-negative (hTERT-HMEC; [5]): 4.72 ± 0.26%
- percentage of EdU-negative (hTERT-HMEC; [6]): 4.37 ± 0.16%

Sequence: MAKSFPVFSLLSFILIHLVLSSVSGPRHWWPPRGIIKVKCPYEKVNLSWYNGTVNPCPGLYQPICGTNFITYDNPCILCVESLKSHGRIRFYHDGKC [Q6IE38]
- percentage of EdU-negative (MCF7; [7]): 24 ± 0.13%
- percentage of EdU-negative (MCF7; protein concentration 0.225 µM): 27 ± 1.2%
- percentage of EdU-negative (hTERT-HMEC; [7]): 6.19 ± 0.33%
- percentage of EdU-negative (hTERT-HMEC; protein concentration 0.225 µM): 6.12 ± 0.94%

Sequence: MVGKLKQNLLLACLVISSVTVFYLGQHAMECHHRIEERSQPVKLESTRTTVRTGLDLKANKTFAYHKDMPLIFIGGVPRSGTTLMRAMLDAHPDIRCGEETRVIPRILALKQMWSRSSKEKIRLDEAGVTDEVLDSAMQAFLLEIIVKHGEPAPYLCNKDPFALKSLTYLSRLFPNAKFLLMVRDGRASVHSMISRKVTIAGFDLNSYRDCLTKWNRAIETMYNQCMEVGYKKCMLVHYEQLVLHPERWMRTLLKFLQIPWNHSVLHHEEMIGKAGGVSLSKVERSTDQVIKPVNVGALSKWVGKIPPDVLQDMAVIAPMLAKLGYDPYANPPNYGKPDPKIIENTRRVYKGEFQLPDFLKEKPQTEQVE
- percentage of EdU-negative (MCF7; [7]): 26.5 ± 0.46%
- percentage of EdU-negative (MCF7; protein concentration 0.225 µM): 25.4 ± 1.6%
- percentage of EdU-negative (hTERT-HMEC; [7]): 4.95 ± 1.4%
- percentage of EdU-negative (hTERT-HMEC; protein concentration 0.225 µM): 7.95 ± 0.61%

Sequence: MLLKTVLLLGHVAQVLMLDNGLLQTPPMGWLAWERFRCNINCDEDPKNCISEQLFMEMADRMAQDGWRDMGYTYLNIDDCWIGGRDASGRLMPDPKRFPHGIPFLADYVHSLGLKLGIYADMGNFTCMGYPGTTLDKVVQDAQTFAEWKVDMLKLDGCFSTPEERAQGYPKMAAALNATGRPIAFSCSWPAYEGGLPPRVNYSLLADICNLWRNYDDIQDSWWSVLSILNWFVEHQDILQPVAGPGHWNDPDMLLIGNFGLSLEQSRAQMALWTVLAAPLLMSTDLRTISAQNMDILQNPLMIKINQDPLGIQGRRIHKEKSLIEVYMRPLSNKASALVFFSCRTDMPYRYHSSLGQLNFTGSVIYEAQDVYSGDIISGLRDETNFTVIINPSGVVMWYLYPIKNLEMSQQ
- percentage of EdU-negative (MCF7; [8]): 27.8 ± 0.95%
- percentage of EdU-negative (MCF7; [9]): 26.5 ± 1.4%
- percentage of EdU-negative (hTERT-HMEC; [8]): 5.62 ± 0.13%
- percentage of EdU-negative (hTERT-HMEC; [9]): 6.091 ± 0.044%

Sequence: MWGLKVLLLPVVSFALYPEEILDTHWELWKKTHRKQYNNKVDEISRRLIWEKNLKYISIHNLEASLGVHTYELAMNHLGDMTSEEVVQKMTGLKVPLSHSRSNDTLYIPEWEGRAPDSVDYRKKGYVTPVKNQGQCGSCWAFSSVGALEGQLKKKTGKLLNLSPQNLVDCVSENDGCGGGYMTNAFQYVQKNRGIDSEDAYPYVGQEESCMYNPTGKAAKCRGYREIPEGNEKALKRAVARVGPVSVAIDASLTSFQFYSKGVYYDESCNSDNLNHAVLAVGYGIQKGNKHWIIKNSWGENWGNKGYILMARNKNNACGIANLASFPKM
- percentage of EdU-negative (MCF7; [10]): 25.3 ± 2.9%
- percentage of EdU-negative (MCF7; protein concentration 0.055 µM): 27.4 ± 1.2%
- percentage of EdU-negative (hTERT-HMEC; [10]): 4.75 ± 0.94%
- percentage of EdU-negative (hTERT-HMEC; protein concentration 0.055 µM): 4.78 ± 0.37%
